This is an account of results in paper PMC3064766 (Nucleic Acids Research, 2010).

The target of experiment [1] is myc-tagged Mot1p (S. cerevisiae, UniProt P32333 1-1867). As to the kind of experiment: co-IP.
In experiment [2] the target is T1, myc-tagged Cbp80p (S. cerevisiae, UniProt P34160 1-861).
T1 sequence (looked up): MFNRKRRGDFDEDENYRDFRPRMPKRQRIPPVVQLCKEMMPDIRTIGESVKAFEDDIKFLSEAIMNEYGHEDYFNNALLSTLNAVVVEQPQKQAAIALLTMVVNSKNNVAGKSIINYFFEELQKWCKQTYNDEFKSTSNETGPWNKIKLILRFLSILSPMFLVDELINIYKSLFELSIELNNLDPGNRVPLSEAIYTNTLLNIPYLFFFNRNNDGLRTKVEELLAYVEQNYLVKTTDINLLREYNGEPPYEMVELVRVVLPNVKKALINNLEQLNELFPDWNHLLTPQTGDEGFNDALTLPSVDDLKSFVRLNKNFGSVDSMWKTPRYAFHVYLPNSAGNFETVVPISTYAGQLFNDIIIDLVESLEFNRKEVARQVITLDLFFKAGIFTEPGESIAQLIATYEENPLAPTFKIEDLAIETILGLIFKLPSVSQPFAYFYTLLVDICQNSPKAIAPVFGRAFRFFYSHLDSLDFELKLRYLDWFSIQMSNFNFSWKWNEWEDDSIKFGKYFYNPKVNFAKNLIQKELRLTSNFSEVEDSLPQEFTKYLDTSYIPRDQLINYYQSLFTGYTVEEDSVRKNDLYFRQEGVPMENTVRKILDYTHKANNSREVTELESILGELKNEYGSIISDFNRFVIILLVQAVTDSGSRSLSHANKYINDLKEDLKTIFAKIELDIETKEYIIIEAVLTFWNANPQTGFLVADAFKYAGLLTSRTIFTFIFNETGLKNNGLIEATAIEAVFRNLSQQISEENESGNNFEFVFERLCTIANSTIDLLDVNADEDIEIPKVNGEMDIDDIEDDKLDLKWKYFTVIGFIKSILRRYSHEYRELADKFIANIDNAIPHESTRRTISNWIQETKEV
As to the kind of experiment: pull-down.

Sequence of myc-tagged Mot1p (P32333 whole entry): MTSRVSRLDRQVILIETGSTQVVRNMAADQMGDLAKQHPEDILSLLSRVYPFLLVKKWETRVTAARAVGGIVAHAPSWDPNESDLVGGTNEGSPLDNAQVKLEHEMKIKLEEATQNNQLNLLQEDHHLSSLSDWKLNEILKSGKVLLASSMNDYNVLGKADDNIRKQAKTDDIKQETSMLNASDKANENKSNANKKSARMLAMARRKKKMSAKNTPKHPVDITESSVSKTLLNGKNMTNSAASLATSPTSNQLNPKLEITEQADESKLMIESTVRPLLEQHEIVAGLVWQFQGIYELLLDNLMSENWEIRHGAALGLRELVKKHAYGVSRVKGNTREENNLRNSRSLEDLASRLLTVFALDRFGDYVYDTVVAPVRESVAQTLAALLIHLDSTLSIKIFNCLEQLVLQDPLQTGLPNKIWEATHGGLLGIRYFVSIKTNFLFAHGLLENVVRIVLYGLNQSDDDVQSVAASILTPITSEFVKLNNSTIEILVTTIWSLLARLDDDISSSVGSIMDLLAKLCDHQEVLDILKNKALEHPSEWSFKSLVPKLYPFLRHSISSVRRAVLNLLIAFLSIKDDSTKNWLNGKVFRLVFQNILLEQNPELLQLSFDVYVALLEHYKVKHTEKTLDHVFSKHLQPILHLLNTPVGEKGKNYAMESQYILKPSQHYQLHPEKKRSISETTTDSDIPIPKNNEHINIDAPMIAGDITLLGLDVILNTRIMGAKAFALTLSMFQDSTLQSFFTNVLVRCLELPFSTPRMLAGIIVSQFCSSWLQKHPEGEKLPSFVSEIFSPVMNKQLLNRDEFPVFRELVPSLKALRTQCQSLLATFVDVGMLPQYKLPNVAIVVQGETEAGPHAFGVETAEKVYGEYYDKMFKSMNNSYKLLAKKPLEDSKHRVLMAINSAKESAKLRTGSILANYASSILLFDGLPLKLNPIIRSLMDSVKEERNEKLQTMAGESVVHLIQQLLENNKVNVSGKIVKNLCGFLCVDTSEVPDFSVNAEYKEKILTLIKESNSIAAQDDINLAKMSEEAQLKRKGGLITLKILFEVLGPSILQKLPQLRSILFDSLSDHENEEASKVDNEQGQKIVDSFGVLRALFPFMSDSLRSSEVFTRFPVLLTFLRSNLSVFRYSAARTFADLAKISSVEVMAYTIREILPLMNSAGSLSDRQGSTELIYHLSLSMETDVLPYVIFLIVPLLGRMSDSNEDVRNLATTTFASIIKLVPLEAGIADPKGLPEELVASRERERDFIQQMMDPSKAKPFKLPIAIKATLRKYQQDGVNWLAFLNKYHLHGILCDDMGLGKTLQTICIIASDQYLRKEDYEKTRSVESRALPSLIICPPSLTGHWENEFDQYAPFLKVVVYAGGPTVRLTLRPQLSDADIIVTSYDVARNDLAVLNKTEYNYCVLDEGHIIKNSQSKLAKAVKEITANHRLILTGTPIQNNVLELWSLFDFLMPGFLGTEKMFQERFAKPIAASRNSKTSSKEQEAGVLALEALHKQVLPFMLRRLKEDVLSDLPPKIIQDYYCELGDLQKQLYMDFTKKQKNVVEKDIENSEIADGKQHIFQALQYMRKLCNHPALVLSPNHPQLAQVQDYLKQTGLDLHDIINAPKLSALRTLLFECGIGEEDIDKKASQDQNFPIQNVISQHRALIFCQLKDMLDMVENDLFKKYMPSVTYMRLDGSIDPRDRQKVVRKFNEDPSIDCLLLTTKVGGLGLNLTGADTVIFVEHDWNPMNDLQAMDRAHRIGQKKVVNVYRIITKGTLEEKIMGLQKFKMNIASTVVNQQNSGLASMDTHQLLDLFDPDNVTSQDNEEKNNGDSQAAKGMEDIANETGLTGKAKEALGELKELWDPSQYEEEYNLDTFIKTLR

B1: HA-tagged Cbp20p (natural protein, S. cerevisiae, UniProt Q08920 1-208, looked up)
chain: MSLEEFDEVKYDHSTKRLDTPSRYLLRKARRNPNGLQELRESMKSSTIYVGNLSFYTSEEQIYELFSKCGTIKRIIMGLDRFKFTPCGFCFIIYSCPDEALNALKYLSDTKLDEKTITIDLDPGFEDGRQFGRGKSGGQVSDELRFDFDASRGGFAIPFAERVGVPHSRFDNSSSQSNTNNYIPPPDAMGTFRPGFDEEREDDNYVPQ
In the case of B1, the binding result in experiment [1] and in experiment [2] was “binds” in each case.
